Target: T1, DcuR-His6 (Escherichia coli O157:H7 EDL933?) (UniProt P0AD02)
T1 sequence: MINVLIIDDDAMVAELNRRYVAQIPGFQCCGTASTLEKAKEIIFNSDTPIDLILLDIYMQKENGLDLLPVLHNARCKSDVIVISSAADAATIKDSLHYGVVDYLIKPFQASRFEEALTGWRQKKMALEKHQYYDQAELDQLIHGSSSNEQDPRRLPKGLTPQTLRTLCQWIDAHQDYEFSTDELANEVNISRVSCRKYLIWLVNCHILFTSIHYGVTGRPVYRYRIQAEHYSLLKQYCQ
Assay: EMSA

Row | Sequence | binding
1 | CATTAGCCATTGGAAACTCACGTAATCATTAATTATGAATATTCCATTAAATAGTACTGTACAACAGCTTCCTTTCTACTCTATTCTTAGACGATGTAAGTTCACCATATTTTTTCTCATTGTTCAACCACCAGGATGAATAAAATTTAAAAATGTTATCCTCATATAAAATAAAACTTCTCAATGGTGCGATGCG (double strand) [PLEE4] | no binding
2 | AGATTCATCTGCAGGCTCTGAAGTAAGTATACGTGTGAATATTATTGCTTGAAAAAGCGTATTGGATAATATATACAGTATATGTACTTTATGTACATTGCAACTATTTAAATAATATAATAGTTGCCTATGGGATAATTTGGTTATTTATAACCAGGTAAATGTCTAAATTAGACAAAAGGAGAAAGATCAATGGAAGCAGCAAATTTAAGTCCTTCTGGTGCAGTAATG (double strand) [PLEE2/3] | no binding
